Test results taken from FireProtDB (doi:10.1111/j.1432-1033.1995.tb20304.x).

Conditions: Hevea brasiliensis, Thermal, DSC, glycine 0.05 M, reversible: yes (~75%), whole UniProt chain shown

B1: Pro-hevein wild type, P02877 (protein)
chain: MNIFIVVLLCLTGVAIAEQCGRQAGGKLCPNNLCCSQWGWCGSTDEYCSPDHNCQSNCKDSGEGVGGGSASNVLATYHLYNSQDHGWDLNAASAYCSTWDANKPYSWRSKYGWTAFCGPVGAHGQSSCGKCLSVTNTGTGAKTTVRIVDQCSNGGLDLDVNVFRQLDTDGKGYERGHITVNYQFVDCGDSFNPLFSVMKSSVIN
- Tm (pH 1.82): 73 °C
- heat capacity change of unfolding (pH 1.82): 0.37 kcal/mol/K
- unfolding enthalpy (calorimetric) (pH 1.82): 29 kcal/mol
- unfolding enthalpy (van 't Hoff) (pH 1.82): 43.4 kcal/mol
- Tm (pH 2.1): 74.2 °C
- heat capacity change of unfolding (pH 2.1): 0.44 kcal/mol/K
- unfolding enthalpy (calorimetric) (pH 2.1): 28.6 kcal/mol
- unfolding enthalpy (van 't Hoff) (pH 2.1): 41.6 kcal/mol
- Tm (pH 2.92): 77.8 °C
- heat capacity change of unfolding (pH 2.92): 0.5 kcal/mol/K
- unfolding enthalpy (calorimetric) (pH 2.92): 31 kcal/mol
- unfolding enthalpy (van 't Hoff) (pH 2.92): 41.5 kcal/mol
- Tm (pH 3.2): 83.6 °C
- heat capacity change of unfolding (pH 3.2): 0.62 kcal/mol/K
- unfolding enthalpy (calorimetric) (pH 3.2): 34 kcal/mol
- unfolding enthalpy (van 't Hoff) (pH 3.2): 41.8 kcal/mol
- Tm (pH 3.54): 84.5 °C
- heat capacity change of unfolding (pH 3.54): 0.44 kcal/mol/K
- unfolding enthalpy (calorimetric) (pH 3.54): 36.5 kcal/mol
- unfolding enthalpy (van 't Hoff) (pH 3.54): 41.6 kcal/mol
- Tm (pH 3.67): 90.1 °C
- heat capacity change of unfolding (pH 3.67): 0.45 kcal/mol/K
- unfolding enthalpy (calorimetric) (pH 3.67): 38 kcal/mol
- unfolding enthalpy (van 't Hoff) (pH 3.67): 42.5 kcal/mol
